Source: patent US20200131515

Columns and labels:
Assay in all cases: SPR
[1] = system: LDL particle (low-density lipoprotein, apoB-containing), commercial; settings: 5' disulfide
[2] = system: HDL particle (high-density lipoprotein); settings: 5' disulfide; 100 nM HDL, selection buffer
[3] = system: L-LDL particle (large fluffy LDL); settings: 5' disulfide; unit inferred
[4] = system: H-LDL particle (small dense LDL); settings: 5' disulfide, unit inferred
[5] = 1 nM LDL, selection buffer, repeat on gold chip
[6] = printed kD differs from kd/ka of same row
[7] = 1 nM LDL added to 1% blood serum in selection buffer
[8] = aptamer on gold chip, unit inferred

Sequence	Kd [1, 5] [nM]	Kd [2] [nM]	Kd [3] [nM]	Kd [4, 6] [nM]	Kd [1, 7] [nM]	Kd [1, 8] [nM]	Kd [4] [nM]
AACTACATGGTATGTGGTGAACTACCTCGATTTTATATTATTTCGCTTACCAACAACTGCAGAGACGTACAATGTACCC [LDL-A1]	0.00168	9.01	0.0327	1.23	–	–	–
AACTACATGGTATGTGGTGAACTAAACCATTCTTGTCTCGCATTTTTCTCTTTTATATTATTTGACGTACAATGTACCC [LDL-A38]	0.0207	11.5	–	–	0.0178	0.0455	0.234
AACTACATGGTATGTGGTGAACTAACCTTAATTTACCCTTGTTTTATCATTTCCATCATAGCTGACGTACAATGTACCC [LDL-A12]	0.0108	7.25	–	–	0.0466	0.0497	0.023
AACTACATGGTATGTGGTGAACTGTCAGCTTCTTCTATATAATTCACCTTGCCTCTCGTTCCTGACGTACAATGTACCC [LDL-A2]	0.015	9.69	0.0159	–	0.00512	0.0421	–
AACTACATGGTATGTGGTGAACTCACGCGCATAACCCTTTTTTCACCTGCCCTTTTAACTAATGACGTACAATGTACCC [LDL-A274]	0.0214	8.26	0.482	0.792	0.114	0.0773	–
